Source: IntAct's records for PubMed 23435566

B1: Rab-3A-interacting protein (Rattus norvegicus (Rat)), Q62739 (parent)
chain: MANDPLEGFHEVNLASPTSPDLLGVCDPGTQEQTTSPSVIYRPHPSTLCSATIQANALNLSDLPTQPVYSSPRHLNCAEISNISIHVPEPASSVASEVAAGLTRFTSRKDSCNAEREFLQGATVTEASAGNDDIFGLSTDSLSRLRSPSVLEVREKGYERLKEELAKAQRELKLKDEECERLSKVRDQLGQELEELTASLFEEAHKMVREANVKQATAEKQLKEAQGKIDVLQAEVAALKTLVLSSSPTSPTQEPLAAGKTPFKRGHTRNKSTSSAMSGSHQDFSAIQPIVKDCREADLSLYNEFRSWKDEPTMDRTCPFLDKIYQEDIFPCLTFAKSELASAVLEAVENNTLSIEPVGLQPIRFVKASAVECGGPKKCALTGQSKPCKHRIKLGDSSSYYYISPVCRYRITSVCNFFTYIRYIQQGLVKQQDVDQMFWEVMQLRKEMSLAKLGYFKEEL
partner: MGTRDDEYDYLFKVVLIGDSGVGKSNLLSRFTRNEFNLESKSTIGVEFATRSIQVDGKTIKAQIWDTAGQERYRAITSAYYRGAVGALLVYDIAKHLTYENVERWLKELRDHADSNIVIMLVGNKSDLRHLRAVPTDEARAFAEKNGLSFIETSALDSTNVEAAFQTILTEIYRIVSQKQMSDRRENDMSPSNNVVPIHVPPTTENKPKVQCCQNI
B2: Rab-3A-interacting protein (Rattus norvegicus (Rat)), Q62739 (parent)
chain: B1 chain

Variants of: B1
Settings: with rb11a_mouse Rab11a

effect of a mutation on the interaction	Variant
increasing interaction	MANDPLEGFHEVNLASPTSPDLLGVCDPGTQEQTTSPSVIYRPHPSTLCSATIQANALNLSDLPTQPVYSSPRHLNCAEISNISIHVPEPASSVASEVAAGLTRFTSRKDSCNAEREFLQGATVTEASAGNDDIFGLSTDSLSRLRSPSVLEVREKGYERLKEELAKAQRELKLKDEECERLSKVRDQLGQELEELTASLFEEAHKMVREANVKQATAEKQLKEAQGKIDVLQAEVAALKTLVLSSSPTSPTQEPLAAGKTPFKRGHTRNKATSSAMSGSHQDFSAIQPIVKDCREADLSLYNEFRSWKDEPTMDRTCPFLDKIYQEDIFPCLTFAKSELASAVLEAVENNTLSIEPVGLQPIRFVKASAVECGGPKKCALTGQSKPCKHRIKLGDSSSYYYISPVCRYRITSVCNFFTYIRYIQQGLVKQQDVDQMFWEVMQLRKEMSLAKLGYFKEEL [S272A]

Variants of: B1
Settings: with rb11a_mouse Rab11a
Remark: another data set of the same source

effect of a mutation on the interaction	Variant
disrupting interaction	MANDPLEGFHEVNLASPTSPDLLGVCDPGTQEQTTSPSVIYRPHPSTLCSATIQANALNLSDLPTQPVYSSPRHLNCAEISNISIHVPEPASSVASEVAAGLTRFTSRKDSCNAEREFLQGATVTEASAGNDDIFGLSTDSLSRLRSPSVLEVREKGYERLKEELAKAQRELKLKDEECERLSKVRDQLGQELEELTASLFEEAHKMVREANVKQATAEKQLKEAQGKIDVLQAEVAALKTLVLSSSPTSPTQEPLAAGKTPFKRGHTRNKSTSSAMSGSHQDFSAIQPIVKDCREADLSLYNEFRSWKDEPTMDRTCPFLDKIYQEDSFPCLTFAKSELASAVLEAVENNTLSIEPVGLQPIRFVKASAVECGGPKKCALTGQSKPCKHRIKLGDSSSYYYISPVCRYRITSVCNFFTYIRYIQQGLVKQQDVDQMFWEVMQLRKEMSLAKLGYFKEEL [I329S]

Variants of: B2
Settings: with exoc6_mouse Exoc6, Q8R313
Chain of exoc6_mouse Exoc6, Q8R313 (Q8R313 whole entry): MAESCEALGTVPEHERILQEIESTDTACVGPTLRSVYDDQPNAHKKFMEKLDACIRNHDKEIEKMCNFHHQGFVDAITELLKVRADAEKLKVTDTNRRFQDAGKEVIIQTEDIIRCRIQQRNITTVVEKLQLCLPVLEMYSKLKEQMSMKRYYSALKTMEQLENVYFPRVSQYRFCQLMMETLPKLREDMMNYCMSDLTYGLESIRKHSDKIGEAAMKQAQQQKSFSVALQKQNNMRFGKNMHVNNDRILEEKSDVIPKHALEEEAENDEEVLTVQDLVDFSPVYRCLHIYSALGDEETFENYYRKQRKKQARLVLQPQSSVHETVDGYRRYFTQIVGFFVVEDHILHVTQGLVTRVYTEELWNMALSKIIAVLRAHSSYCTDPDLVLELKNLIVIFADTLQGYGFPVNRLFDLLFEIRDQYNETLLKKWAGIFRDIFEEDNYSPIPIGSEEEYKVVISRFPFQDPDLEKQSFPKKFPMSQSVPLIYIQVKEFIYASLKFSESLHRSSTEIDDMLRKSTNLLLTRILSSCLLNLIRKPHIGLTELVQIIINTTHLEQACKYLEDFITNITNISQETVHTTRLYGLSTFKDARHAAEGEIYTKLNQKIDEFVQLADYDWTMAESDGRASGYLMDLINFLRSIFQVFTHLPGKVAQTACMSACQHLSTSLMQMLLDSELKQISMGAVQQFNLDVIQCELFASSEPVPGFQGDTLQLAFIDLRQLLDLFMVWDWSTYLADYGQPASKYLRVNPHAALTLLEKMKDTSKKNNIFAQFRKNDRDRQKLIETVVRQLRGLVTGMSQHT

effect of a mutation on the interaction	Variant
disrupting interaction	MANDPLEGFHEVNLASPTSPDLLGVCDPGTQEQTTSPSVIYRPHPSTLCSATIQANALNLSDLPTQPVYSSPRHLNCAEISNISIHVPEPASSVASEVAAGLTRFTSRKDSCNAEREFLQGATVTEASAGNDDIFGLSTDSLSRLRSPSVLEVREKGYERLKEELAKAQRELKLKDEECERLSKVRDQLGQELEELTASLFEEAHKMVREANVKQATAEKQLKEAQGKIDVLQAEVAALKTLVLSSSPTSPTQEPLAAGKTPFKRGHTRNKATSSAMSGSHQDFSAIQPIVKDCREADLSLYNEFRSWKDEPTMDRTCPFLDKIYQEDIFPCLTFAKSELASAVLEAVENNTLSIEPVGLQPIRFVKASAVECGGPKKCALTGQSKPCKHRIKLGDSSSYYYISPVCRYRITSVCNFFTYIRYIQQGLVKQQDVDQMFWEVMQLRKEMSLAKLGYFKEEL [S272A]

Variants of: B2
Settings: with exoc6_mouse Exoc6, Q8R313
Remark: another data set of the same source

effect of a mutation on the interaction	Variant
increasing interaction	MANDPLEGFHEVNLASPTSPDLLGVCDPGTQEQTTSPSVIYRPHPSTLCSATIQANALNLSDLPTQPVYSSPRHLNCAEISNISIHVPEPASSVASEVAAGLTRFTSRKDSCNAEREFLQGATVTEASAGNDDIFGLSTDSLSRLRSPSVLEVREKGYERLKEELAKAQRELKLKDEECERLSKVRDQLGQELEELTASLFEEAHKMVREANVKQATAEKQLKEAQGKIDVLQAEVAALKTLVLSSSPTSPTQEPLAAGKTPFKRGHTRNKSTSSAMSGSHQDFSAIQPIVKDCREADLSLYNEFRSWKDEPTMDRTCPFLDKIYQEDSFPCLTFAKSELASAVLEAVENNTLSIEPVGLQPIRFVKASAVECGGPKKCALTGQSKPCKHRIKLGDSSSYYYISPVCRYRITSVCNFFTYIRYIQQGLVKQQDVDQMFWEVMQLRKEMSLAKLGYFKEEL [I329S]
